# Fewer inactive variants are shown than the library holds.
# B1: TPR 5TU (parent)
# chain: GGAUCUUCUCGAUCUAACAAAAAAGACAAAUCUGCCACAAAGCUUGAGAGCAUCUUCGGAUGCAGAGGCGGCAGCCUUCGGUGGCGCGAUAGCGCCAACGUUCUCAACUAUGACACGCAAAACGCGUGCUCCGUUGAAUGGAGUUUAUCAUG
# Variants of: B1
# Test: polymerase ribozyme fitness, log enrichment relative to wild type (log ratio); higher = more active; in vitro selection for triplet polymerase activity
# Outline: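 Mutant libraries for each subunit of a heterodimeric triplet polymerase ribozyme were made by PCR and then transcribed. Each library underwent one round of in vitro selection in triplicate: annealing with a biotinylated primer, the partner subunit and triplets, frozen incubation at −7 °C, gel excision of extended constructs, streptavidin-bead capture and RT-PCR. Input and output libraries were Illumina-sequenced, and only genotypes with ≥10 input reads and ≥1 read per output were kept. Fitness is the logarithm, base 2, of genotype enrichment over wild-type enrichment, computed from inverse-variance-weighted replicate averages.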
row,Variant,polymerase ribozyme fitness (log ratio)
1,GGAUCUUCUCGAUCUAACAACAAAGACAAAUCUUCCACAAAGCUUGAGAGCAUCUUCGGAAGCAGAGGCGGCAGCCUUCGGUGGCGUGAUAGCGCCAACGUUCUCAACUAUGACACGCAAAACGCGUGCUCCGGAGAAUGCAGUUUAUCAUG [A21C G34U U61A C87U U134G U135A G141C],≤ -4.2
2,GGAUCUUCUCGAUCUAACAACAAAGACAAAUCUGCCACAAAGCUUGAGAGCAUCUUCGGAUGCAGAGGCGGCAGCCUUCGGUGGCGCGAUAGCGUCAACGUUCUCAACUAUGACACGCAAAACGCGUGAUCCGUUGAAUGGAGUUUAUCAUG [A21C C95U C129A],-2.89
3,GGAUCUUCUCGAUCUAACAACAAAGACAAAUCUGCGACAACGCUUGAGAGCAUCUUCGGAUGCAGAGGCGGUUGCCUGCGGUGGCGCGAUAGCGCUAACGUUCUCAACUAUGACACGUAAAACGCGUACUCCGUUGAAUGGUGUUUAUCAUG [A21C C36G A41C C72U A73U U78G C96U C118U G128A A142U],≤ -4.2
4,GGAUCUUCUCGAUCUAACAACAAAAACAAAUCUGCCACAAAGCUUGAGAGCAUCUUCGGAUGGAGAGGCGGCAGCCUUCGGUGGCGCGAUAGCGCCAACGUUCUCAACUAUGACACGCAAAACGCGUGCUCCGUUGAAUGGAGUUUAUCAUG [A21C G25A C63G],-3.29
5,GGAUCUUCUCGAUCUAACAACAAAGACAAAUCUGCCACAAAGCUUGAGAGCAUCUUCGGAUGCAGAGGCGGCAGCCUUCGGUGGCGCGAUAGCGCCAACGUUCUCAACUAUGACAUGCAAAACGCGUGCUCCGUUGAAUGGAGUUUAUCAUG [A21C C116U],0.668
6,GGAUCUUCUCGAUCUAACAACAAAUACAAAUCUGCCACAAAGCUUGAGAGCAUCUUCGGAUGCAGAGGCGGCAGCCUUCGGUGGCGCGAUAGCGCAGACGUUCUCAACUAUGACACGCAAAACGCGUGCUCCGUUGAAUGGAGUUUAUCAUG [A21C G25U C96A A97G],-3.82
7,GGAUCUUCUCGAUCUAACAACAAAGACAAAUCUGCCACAAAGCUUGAGAACAUCUUCGGAUGCAGAGGCGGCAGCCUUCGGUGGCGCGAUAGCGCUAACGUUCUCAACUAUGACACGCAAAACGGGUGCUCCGUUGAAUGGAGUUUAUCAUG [A21C G50A C96U C125G],-1.98
8,GGAUCUUCUCGAUCUAACAACAAAGACAAAUCUGCCACAAAGCUUGAGAACAUCUUAGGAUGCAGAGGCGGCAGCCUUCGGUGGCGCGAUAGAGCCAACGUUCUCAACUAUGACACGCAAAACGCGUGCUCCGUGGAAUGGAGUUUAUCAUG [A21C G50A C57A C93A U135G],≤ -4.2
9,GGAUCUUCUCGAUCUAACAACAAAGACAAAUCUGCCACAAAGCUUGAGAGCAUCUUCGGAUGCAGAGGCGGCAGCCUUCGGUGGAGCGAUAGCGCCAACGUUCUCAACUAUGACACGCAAAACGCGAGCUCCGUUGAAUGGAGUUUAUCAUG [A21C C85A U127A],≤ -4.2
10,GGAUCUUCUCGAUCUAACAACAAAGACAAAUCUGCCACAAAGCUUGAGAACAUCUUCGGAUGCAGAGGCGGCAGCCUUCGGUGGCGCGAUAGCGCCAACGUACUCAACUAUGACACGCAAAACGCGUGCUCCGUUGAAUGGAGUUUAUCAUG [A21C G50A U102A],-1.21
11,GGAUCUUCUCGAUCUAACAACAAAGACAAAUCUGCCACAAAGCUUGAGAGCAUCUUCGGAUGCAGAGGCGGCAGCCUUCGGUGGUGCGAUAGCGCCAACGUUCUCAACUAUGACACGCAAAACGCGUGCUCCGUUGAUUGGAGUUUAUCAUG [A21C C85U A138U],≤ -4.2
12,GGAUCUUCUCGAUCUAACAACAAAGACAAAUCUGCCACAAAACUUGAGAGCAUAUUCGGAUGCAGAGGCGGCAGCCUUCGGUGGCGCGAUAGCGCGAACGUGCUCAACUAUGACACGCAAAACGCGUGCUCCGUUGAAUGGAGUUUAUCAUG [A21C G42A C54A C96G U102G],≤ -4.2
13,GGAUCUUCUCGAUCUAACAACAAAGACAAAUCUGUCACAAAGCUUGAGAGCAUCUUCGGAUGCAGAGGCGGCAGUCUUCGGUGGCGCGAUACCGCAAACGUUCUCAAUUAUGACACGCAAAACGCGUGCUUCGUUGAAUGGCGUUUAUCAUG [A21C C35U C75U G92C C96A C108U C131U A142C],≤ -4.2
14,GGAUCUUCUCGAUCUAACAACAAAGACAAAUCUGCCACAAAGCUUGAGAGCAUCUUCGGAUGCAGAGGCGGCAGCCUUCGGUGGCGCGAUAGCGCAAACGUUCUCAACUAUGACACGCAAAACGCGUGCUCCGUUGAAUGGAAUUGAUCAUG [A21C C96A G143A U146G],-3.61
15,GGAUCUUCUCGAUCUAACAACAAAGACAAAUCUGCCACAAAGCUUGAGAGCAUCUUGGGAUGCAGAGGCGGCAGCCUUCGAUGGCGCGAUAGCGCCAACGUUCUCAACUAUGACCCGCAAAACGCGUGCUCCGUUGAAUGGAGUUUAUCAUG [A21C C57G G81A A115C],-1.84
16,GGAUCUUCUCGAUCUAACAACAAAGACAAAUCUGCCACAAAGCUUGAGAGCAUCUUCGGAUGCAGAGGCGGCAGCCUUCGGUGGCGUGAUAGCGCCAACGUUCUCAACUAUGACACGCAAAACGCGUGCUCCGUUGAAUGGAGUUUUUCAUG [A21C C87U A147U],0.884
17,GGAUCUUCUCGAUCUAACAACAAAGACAAAUCUGCCACAAAGCUUGAGAGCAUCUUAGGAUGCAGAGGCGGCAGCCUUCGUUGGAGCGAUAGCGCCAACGUUCUCAACUAUGACACGCAAAACGCGUGCUCCGUUGAAGGGAGUUUAUCAUG [A21C C57A G81U C85A U139G],-0.214
18,GGAUCUUCUCGAUCUAACAACAAAAACAAAUCUGCCACAAAGCUUGAGAGCAUCUUCGGAUGCAGAGGCGGCAGCCUUCGGUGGCGCGAUAACGCCAACGUUCUCAACUAUGACACGCAAAACGCGUGCUCCUUUGAAUGGAGUUUAUCGUG [A21C G25A G92A G133U A150G],≤ -4.2
19,GGAUCUUCUCGAUCUAACAACAAAGACAAAUCUGCCACAAAGCUUGAGAGCAUCUUCGGAUGCAGAGGCGGCAGCCUUCGGUGGCGCGAUAGAGCCAAUGUUCUCAACUAUGACACGCAAAACGCGUGCUCCGUUUAAUGGUGUUUAUCAUG [A21C C93A C99U G136U A142U],≤ -4.2
